Data as given in patent US20240425603A1 (Janssen / Centocor, published 2024).
“And” between values parts separate entries of the source, which are not always exact repeats. Equal values may be shown once.

Assays:
[1] = target: T1, rat VEGFR1 (soluble antigen of the KinExA and SPR affinity assays) (rat, UniProt P53767 23-758, limits assumed); assay: SPR
T1 sequence (looked up): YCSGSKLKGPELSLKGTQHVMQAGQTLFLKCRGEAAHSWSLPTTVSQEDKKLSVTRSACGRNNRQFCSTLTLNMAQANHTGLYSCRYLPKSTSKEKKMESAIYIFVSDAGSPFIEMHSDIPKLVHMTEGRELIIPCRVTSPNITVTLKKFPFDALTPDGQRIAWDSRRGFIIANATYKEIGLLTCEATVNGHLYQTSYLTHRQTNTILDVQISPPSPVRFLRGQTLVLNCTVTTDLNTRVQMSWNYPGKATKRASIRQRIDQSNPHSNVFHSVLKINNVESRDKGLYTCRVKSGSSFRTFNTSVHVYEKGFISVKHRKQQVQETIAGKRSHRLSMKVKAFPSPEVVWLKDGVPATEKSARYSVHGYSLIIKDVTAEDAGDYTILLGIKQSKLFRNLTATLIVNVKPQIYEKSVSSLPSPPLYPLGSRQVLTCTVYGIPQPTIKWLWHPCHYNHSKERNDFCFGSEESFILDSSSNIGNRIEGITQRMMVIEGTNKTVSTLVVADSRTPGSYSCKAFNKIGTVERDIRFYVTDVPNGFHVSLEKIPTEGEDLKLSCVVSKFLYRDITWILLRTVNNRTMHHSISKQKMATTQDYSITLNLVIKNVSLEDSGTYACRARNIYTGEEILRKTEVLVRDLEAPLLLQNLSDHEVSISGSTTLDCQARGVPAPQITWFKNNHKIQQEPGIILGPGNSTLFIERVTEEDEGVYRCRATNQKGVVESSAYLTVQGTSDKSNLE

[2] = target: human VEGFR1 (soluble antigen of the KinExA and SPR affinity assays) (human, UniProt P17948 27-758, limits assumed); assay: SPR
ISLR (BC022478) = target: T2, ISLR (BC022478) (human, UniProt O14498 19-428); assay: Retrogenix cell microarray, fixed HEK293 cells, 2 ug/mL antibody
T2 construct: whole, on cells; also called Immunoglobulin superfamily containing leucine-rich repeat protein
T2 sequence (looked up): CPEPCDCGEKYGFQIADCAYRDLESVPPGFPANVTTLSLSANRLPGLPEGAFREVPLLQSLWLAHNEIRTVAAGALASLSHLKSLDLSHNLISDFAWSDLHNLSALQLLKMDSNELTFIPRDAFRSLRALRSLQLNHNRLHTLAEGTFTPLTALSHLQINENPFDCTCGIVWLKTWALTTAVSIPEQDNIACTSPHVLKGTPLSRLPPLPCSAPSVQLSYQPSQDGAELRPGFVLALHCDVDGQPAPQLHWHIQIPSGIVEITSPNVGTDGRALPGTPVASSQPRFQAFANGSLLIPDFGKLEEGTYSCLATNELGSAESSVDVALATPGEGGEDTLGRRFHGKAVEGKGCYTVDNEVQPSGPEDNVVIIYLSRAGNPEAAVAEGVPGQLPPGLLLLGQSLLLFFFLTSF
Procedure: (§1) This human cell microarray methodology has been previously described in the literature (Freeth, J. et al, SLAS Discovery, 25 (2), 223-230, 2020). Primary screening was performed on slides arrayed with fixed HEK293 cells with each spot of HEK293 cells expressing either a unique protein from the cell surface-ome, a cell surface tethered human secreted protein, or a heterodimeric human cell surface receptor. In total, 5,528 unique gene products were represented in this primary screen (4,103 human plasma membrane proteins (+some untethered secreted proteins)+1,425 cell surface tethered human secreted proteins). Briefly, slides containing fixed transfected HEK293 cells were overlaid with a solution of test antibody (2 μg/mL), incubated, and washed. Binding was assessed using AlexaFluor647-conjugated anti-human IgG Fc detection antibody and fluorescence quantitation on ImageQuant. […] Located in the ER, off-target binding to CRELD2 was of less concern. Nectin-1, FGFR2, and ISLR, on the other hand, display broad tissue expression profiles. Cross-reactivity to these proteins is undesirable because binding to these targets might have a significant impact on pharmacokinetic and biodistribution profiles of the molecules. This off-target binding was subsequently confirmed by flow cytometry on live HEK293 cells transiently expressing these ‘off-target’ proteins identified in the primary screen.

[3] = target: T3, human VEGFR1, full length, over-expressed on cells (human, UniProt P17948 27-1338); assay: cell binding assay (column head prints IC50)
T3 construct: on CHO-K1 or HEK cells; also called hVEGFR1; CHOK1/ human VEGFR1

[4] = target: T4, human VEGFR2, over-expressed on HEK293 cells (human, UniProt P35968 20-1356); assay: flow cytometry, single concentration (Table 21)
T4 construct: whole, on cells; also called huVEGFR2; hVEGFR2

[5] = target: T5, NECTIN1 Isoform Alpha (NM_203285.1) (human, UniProt Q15223-2 31-458); assay: Retrogenix cell microarray, fixed HEK293 cells, 2 ug/mL antibody
T5 construct: whole, on cells
T5 sequence (looked up): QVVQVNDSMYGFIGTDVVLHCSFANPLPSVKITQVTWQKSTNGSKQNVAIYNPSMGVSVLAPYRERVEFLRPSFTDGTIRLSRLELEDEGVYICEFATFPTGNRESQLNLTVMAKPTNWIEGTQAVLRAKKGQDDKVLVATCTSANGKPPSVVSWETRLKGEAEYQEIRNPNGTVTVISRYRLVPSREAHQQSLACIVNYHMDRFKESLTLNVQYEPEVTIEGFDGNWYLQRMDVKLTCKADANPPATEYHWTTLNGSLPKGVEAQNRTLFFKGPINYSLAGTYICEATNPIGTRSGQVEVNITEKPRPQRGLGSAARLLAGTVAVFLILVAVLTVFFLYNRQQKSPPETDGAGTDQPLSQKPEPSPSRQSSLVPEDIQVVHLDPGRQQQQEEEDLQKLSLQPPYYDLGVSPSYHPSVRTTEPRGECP
Procedure: as §1

[6] = target: T6, NECTIN1 Isoform Gamma (NM_203286.1) (human, UniProt Q15223-3 31-352); assay: Retrogenix cell microarray, fixed HEK293 cells, 2 ug/mL antibody; topology TS
T6 construct: whole, on cells
T6 sequence (looked up): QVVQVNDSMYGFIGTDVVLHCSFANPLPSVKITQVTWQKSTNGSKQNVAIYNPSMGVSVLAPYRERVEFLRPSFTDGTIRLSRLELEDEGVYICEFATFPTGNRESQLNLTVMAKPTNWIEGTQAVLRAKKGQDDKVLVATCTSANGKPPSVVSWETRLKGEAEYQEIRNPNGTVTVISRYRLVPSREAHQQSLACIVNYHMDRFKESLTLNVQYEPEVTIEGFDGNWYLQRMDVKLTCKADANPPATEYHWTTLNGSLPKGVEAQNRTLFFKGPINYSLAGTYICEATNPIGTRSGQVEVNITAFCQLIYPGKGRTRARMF
Procedure: as §1

Sequence of human VEGFR1 (soluble antigen of the KinExA and SPR affinity assays) (P17948 27-758 limits assumed): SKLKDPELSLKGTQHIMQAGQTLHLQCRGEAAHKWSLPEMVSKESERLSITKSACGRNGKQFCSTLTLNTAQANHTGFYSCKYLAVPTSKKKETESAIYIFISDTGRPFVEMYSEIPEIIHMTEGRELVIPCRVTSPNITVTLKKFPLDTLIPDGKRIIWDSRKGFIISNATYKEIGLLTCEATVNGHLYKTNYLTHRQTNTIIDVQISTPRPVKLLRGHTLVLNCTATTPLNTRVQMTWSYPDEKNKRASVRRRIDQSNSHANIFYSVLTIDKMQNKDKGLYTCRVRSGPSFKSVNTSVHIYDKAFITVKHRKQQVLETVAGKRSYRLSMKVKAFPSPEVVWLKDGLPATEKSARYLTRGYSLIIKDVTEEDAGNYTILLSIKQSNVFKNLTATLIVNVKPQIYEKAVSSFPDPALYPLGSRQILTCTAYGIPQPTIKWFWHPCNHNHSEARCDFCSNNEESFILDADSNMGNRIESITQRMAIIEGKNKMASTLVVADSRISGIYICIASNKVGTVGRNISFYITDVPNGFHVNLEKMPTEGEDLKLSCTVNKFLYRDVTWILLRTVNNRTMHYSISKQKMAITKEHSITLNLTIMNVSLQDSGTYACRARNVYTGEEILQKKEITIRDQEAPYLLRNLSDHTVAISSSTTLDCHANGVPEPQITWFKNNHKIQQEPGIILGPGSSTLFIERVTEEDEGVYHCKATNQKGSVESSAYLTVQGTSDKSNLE
T3 sequence (P17948 27-1338 limits assumed): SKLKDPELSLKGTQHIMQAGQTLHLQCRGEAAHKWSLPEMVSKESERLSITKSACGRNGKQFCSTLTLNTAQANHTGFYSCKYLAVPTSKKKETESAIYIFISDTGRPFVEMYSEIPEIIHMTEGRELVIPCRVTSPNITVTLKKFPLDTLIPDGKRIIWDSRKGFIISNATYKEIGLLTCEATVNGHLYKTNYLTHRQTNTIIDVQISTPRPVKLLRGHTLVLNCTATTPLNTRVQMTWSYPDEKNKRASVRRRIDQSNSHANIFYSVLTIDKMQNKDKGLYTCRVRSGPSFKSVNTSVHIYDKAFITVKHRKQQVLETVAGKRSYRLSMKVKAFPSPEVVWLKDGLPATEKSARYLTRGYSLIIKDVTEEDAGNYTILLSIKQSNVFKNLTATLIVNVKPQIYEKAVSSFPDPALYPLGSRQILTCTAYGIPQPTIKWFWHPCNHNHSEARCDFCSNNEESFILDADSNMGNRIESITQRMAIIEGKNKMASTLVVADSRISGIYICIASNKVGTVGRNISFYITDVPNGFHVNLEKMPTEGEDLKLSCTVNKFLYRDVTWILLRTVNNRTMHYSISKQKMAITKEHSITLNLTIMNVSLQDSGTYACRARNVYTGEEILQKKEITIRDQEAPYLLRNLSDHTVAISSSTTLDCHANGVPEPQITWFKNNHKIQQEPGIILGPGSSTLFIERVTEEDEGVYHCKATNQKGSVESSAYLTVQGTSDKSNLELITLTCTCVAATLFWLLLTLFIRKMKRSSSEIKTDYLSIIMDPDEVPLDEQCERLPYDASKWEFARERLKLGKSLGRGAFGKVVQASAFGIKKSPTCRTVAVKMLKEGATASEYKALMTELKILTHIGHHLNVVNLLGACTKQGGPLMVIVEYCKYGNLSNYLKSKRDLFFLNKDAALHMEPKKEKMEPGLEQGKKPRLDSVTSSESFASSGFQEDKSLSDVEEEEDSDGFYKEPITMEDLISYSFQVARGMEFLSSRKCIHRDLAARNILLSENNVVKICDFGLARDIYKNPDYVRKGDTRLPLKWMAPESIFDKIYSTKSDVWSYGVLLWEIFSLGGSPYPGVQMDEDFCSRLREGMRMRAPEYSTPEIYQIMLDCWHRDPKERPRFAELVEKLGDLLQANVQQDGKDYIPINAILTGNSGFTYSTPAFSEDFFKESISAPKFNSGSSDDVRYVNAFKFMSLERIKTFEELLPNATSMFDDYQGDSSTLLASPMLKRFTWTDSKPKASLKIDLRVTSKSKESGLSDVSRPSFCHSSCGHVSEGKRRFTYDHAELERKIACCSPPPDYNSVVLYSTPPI
T4 sequence (P35968 20-1356): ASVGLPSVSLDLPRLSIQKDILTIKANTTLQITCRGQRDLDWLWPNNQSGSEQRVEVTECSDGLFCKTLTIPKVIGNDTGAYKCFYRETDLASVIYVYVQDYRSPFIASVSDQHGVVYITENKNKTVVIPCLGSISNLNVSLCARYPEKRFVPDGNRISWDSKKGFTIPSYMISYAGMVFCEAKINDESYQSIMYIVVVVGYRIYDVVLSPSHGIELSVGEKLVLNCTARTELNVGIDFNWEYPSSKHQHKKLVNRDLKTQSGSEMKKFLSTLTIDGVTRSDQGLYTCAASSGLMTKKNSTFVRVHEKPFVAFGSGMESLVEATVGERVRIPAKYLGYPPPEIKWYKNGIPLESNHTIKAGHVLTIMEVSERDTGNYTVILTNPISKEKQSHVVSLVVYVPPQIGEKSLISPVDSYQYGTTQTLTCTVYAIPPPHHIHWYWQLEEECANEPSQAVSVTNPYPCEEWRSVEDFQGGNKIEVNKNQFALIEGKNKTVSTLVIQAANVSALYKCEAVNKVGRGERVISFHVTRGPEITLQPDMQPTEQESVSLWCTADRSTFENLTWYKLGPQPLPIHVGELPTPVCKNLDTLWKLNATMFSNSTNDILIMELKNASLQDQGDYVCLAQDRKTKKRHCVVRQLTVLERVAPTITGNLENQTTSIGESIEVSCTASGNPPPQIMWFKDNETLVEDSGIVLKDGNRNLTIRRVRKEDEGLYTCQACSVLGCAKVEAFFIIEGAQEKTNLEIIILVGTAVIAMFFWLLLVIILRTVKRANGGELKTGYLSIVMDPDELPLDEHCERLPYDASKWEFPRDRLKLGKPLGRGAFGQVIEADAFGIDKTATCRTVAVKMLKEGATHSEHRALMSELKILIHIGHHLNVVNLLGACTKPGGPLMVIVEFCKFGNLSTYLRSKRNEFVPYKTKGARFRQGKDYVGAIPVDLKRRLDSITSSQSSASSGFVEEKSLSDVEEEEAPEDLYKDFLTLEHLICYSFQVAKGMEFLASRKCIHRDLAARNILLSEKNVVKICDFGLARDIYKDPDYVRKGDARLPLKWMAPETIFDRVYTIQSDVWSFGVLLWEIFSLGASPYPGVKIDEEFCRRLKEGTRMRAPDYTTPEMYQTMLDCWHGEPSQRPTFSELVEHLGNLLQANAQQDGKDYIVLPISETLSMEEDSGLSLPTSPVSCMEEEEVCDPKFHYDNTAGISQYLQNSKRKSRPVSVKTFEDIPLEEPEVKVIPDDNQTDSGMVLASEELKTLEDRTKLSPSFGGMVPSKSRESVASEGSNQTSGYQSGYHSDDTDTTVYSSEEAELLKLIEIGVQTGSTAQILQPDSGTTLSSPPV

B1: VGFB82 (antibody, human IgG1, lambda, L234A L235A, V domains shown)
VH: EVQLLESGGGLVQPGGSLRLSCEASGFDFSTYAMNWVRQAPGKGLEWVATINSEGTITSHAPAVKGRFTISRDNSKNTAYVQMNSLRAEDSAVYYCSSTTGTTHGMDVWGRGTTVTVSS
VL: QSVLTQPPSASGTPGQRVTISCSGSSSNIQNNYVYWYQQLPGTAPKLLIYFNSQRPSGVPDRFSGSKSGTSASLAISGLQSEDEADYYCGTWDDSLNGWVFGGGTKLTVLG
notes: human IgG1 (L234A/L235A/D265S)
[1]
  Kd: 0.6 to 1 nM
[2]
  Kd: 0.01 nM and < 0.006 nM

B2: VGFB78 (antibody, human IgG1, lambda, L234A L235A, V domains shown)
VH: EVQLLESGGGLVQPGGSLRLSCAASSFTFYNYDMTWVRQAPGKGLEWVAGIGTSGTDMYYADSVKGRFTISRDNSKNTLYLQMNSLRAEDTAIYYCAKDYYYYGMDVWGLGTTVTVSS
VL: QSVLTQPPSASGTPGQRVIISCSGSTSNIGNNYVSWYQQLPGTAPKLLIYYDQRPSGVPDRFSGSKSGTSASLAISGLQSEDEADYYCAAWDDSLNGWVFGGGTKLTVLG
notes: as for B1
ISLR (BC022478)
  binding result: binds

B3: VGFB54 (antibody, human IgG1, lambda, L234A L235A, V domains shown)
VH: EVQLLESGGGSVQPGGSLRLSCTASGFNFEDYGMNWVRQAPGKGLDWVSSINRNGDISTYHVDSVKGRFTISRDNSKNTLYLQMNSLRAEDTAIYYCTKNHDYHGMDVWGQGTTVTVSS
VL: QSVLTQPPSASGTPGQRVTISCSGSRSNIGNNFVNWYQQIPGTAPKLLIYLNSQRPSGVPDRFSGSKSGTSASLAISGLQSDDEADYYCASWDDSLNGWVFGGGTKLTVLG
notes: human IgG1 (L234A/L235A/D265S), lambda, 2H:2L; from OmniChicken
[3]
  IC50: 0.198 nM

B4: VGFB71 (antibody, human IgG1, lambda, L234A L235A, V domains shown)
VH: EVQLLESGGGLVQPGGSLRLSCEASGFIFRDYNMNWVRQAPGKGLEWVSIITNDGSSTAYSDSVKGRFTISRDNSKNSLYLQMNSLRAEDTAIYYCVKVYYGMDDWGQGTTVTVSS
VL: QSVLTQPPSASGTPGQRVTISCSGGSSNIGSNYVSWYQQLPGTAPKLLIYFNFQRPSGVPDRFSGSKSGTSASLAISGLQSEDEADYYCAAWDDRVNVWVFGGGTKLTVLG
notes: as for B1
[4]
  binding result: no binding (tested: 10 nM)
[5]
  binding result: binds
[6]
  binding result: binds
